# Legend:
# [1] = target: T1, recombinant Notch2 (EGF1-12) Fc fusion protein (human); assay: phage selection and ELISA screen on passively immobilized Notch2 (EGF1-12) Fc fusion
# T1 construct: passively immobilised for phage selection and ELISA screen; also called Notch2 Fc fusion protein
# Method: Briefly, 2×10¹³ Fab displaying phage particles were incubated with a passively immobilized, recombinant Notch2 Fc fusion protein (SEQ ID NO:21) comprising the extracellular ligand binding site of Notch2 and surrounding EGF repeats (EGF1-12) in round one. The non-specific phage were washed off, and then the specific phage were eluted with DTT. The eluted output was used to infect TG1 F+bacteria, rescued with helper phage, and then Fab display induced with IPTG (0.25 mM). This process was repeated for two additional rounds and then round three was screened in ELISA against passively immobilized recombinant Notch2 (EGF1-12) Fc fusion (5 μg/ml).
# [2] = target: T2, human Notch1 with residues 382-386 mutated to the corresponding human Notch2 residues (385-389), full length, … (human, UniProt P46531 19-2555); assay: FACS on transiently transfected HEK 293 cells
# T2 construct: G384 is the same in both; also called mutant hNotch1; mutated Notch1
# T2 sequence (P46531 other isoform, or with tags, fused parts or gaps limits assumed, change not shown): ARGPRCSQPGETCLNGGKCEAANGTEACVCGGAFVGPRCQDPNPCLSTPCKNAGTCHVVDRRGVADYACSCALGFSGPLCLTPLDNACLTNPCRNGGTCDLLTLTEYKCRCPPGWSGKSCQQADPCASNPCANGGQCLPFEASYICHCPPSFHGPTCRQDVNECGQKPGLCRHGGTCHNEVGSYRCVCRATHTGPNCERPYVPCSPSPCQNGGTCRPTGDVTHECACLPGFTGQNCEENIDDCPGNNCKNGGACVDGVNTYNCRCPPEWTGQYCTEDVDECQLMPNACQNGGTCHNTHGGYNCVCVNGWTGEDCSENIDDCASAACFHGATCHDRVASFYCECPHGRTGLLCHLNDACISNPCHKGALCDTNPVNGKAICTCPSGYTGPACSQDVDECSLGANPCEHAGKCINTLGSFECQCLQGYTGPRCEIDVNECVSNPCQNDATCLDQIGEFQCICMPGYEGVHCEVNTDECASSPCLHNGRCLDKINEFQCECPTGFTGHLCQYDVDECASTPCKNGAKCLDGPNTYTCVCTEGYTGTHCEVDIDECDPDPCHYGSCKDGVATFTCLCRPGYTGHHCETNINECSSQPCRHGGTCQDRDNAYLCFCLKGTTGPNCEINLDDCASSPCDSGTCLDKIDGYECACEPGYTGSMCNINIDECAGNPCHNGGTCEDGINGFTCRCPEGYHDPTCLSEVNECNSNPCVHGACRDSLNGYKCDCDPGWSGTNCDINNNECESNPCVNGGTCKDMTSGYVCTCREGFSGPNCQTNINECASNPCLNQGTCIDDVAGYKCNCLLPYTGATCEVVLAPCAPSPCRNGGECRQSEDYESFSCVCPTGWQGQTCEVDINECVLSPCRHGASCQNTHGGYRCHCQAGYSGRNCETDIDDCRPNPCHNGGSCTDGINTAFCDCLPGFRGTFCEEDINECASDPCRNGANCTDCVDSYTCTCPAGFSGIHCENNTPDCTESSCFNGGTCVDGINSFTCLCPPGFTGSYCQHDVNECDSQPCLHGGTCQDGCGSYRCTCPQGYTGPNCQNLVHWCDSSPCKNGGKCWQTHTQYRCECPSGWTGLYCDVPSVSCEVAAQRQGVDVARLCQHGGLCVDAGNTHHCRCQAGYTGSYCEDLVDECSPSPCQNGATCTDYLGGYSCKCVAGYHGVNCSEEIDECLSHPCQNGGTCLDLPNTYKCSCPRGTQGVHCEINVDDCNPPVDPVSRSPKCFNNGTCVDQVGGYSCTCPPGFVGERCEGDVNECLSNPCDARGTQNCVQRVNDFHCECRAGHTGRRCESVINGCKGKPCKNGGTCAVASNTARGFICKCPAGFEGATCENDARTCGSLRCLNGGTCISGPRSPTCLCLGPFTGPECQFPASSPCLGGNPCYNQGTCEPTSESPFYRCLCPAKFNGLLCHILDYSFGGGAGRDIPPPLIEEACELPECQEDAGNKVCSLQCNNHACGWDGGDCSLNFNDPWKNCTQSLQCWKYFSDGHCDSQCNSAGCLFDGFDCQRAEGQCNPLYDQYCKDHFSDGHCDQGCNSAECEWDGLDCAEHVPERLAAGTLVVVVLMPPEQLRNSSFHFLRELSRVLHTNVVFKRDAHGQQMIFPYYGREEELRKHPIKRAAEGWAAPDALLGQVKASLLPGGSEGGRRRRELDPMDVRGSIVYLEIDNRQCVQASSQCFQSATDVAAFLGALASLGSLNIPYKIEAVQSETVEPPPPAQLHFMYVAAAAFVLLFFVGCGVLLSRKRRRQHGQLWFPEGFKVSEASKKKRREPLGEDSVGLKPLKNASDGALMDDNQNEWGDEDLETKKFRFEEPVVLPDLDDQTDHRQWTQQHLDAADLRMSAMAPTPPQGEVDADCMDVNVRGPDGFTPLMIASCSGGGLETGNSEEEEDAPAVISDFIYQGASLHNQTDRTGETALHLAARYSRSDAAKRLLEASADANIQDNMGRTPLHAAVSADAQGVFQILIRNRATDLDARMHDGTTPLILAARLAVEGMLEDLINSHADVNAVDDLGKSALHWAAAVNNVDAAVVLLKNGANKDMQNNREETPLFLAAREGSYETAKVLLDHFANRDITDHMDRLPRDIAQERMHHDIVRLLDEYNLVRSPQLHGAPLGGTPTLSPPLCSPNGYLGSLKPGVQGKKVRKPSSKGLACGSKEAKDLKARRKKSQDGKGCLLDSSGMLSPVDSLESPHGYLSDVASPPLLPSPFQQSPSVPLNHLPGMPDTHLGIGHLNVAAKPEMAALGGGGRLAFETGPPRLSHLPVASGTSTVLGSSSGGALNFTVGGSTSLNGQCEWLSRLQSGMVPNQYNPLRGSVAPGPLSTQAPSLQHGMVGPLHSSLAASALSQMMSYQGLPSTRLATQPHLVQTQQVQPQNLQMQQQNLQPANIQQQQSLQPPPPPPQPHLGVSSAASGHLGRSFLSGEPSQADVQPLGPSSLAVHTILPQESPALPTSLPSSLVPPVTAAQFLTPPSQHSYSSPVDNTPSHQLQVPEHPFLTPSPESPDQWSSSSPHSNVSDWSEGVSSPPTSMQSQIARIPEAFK
# Method: FIG. 15. In vitro characterization of 59R5. […] PC3 tumor cells were transiently transfected with human or mouse Notch receptor (hN2, human Notch2; mN2, murine Notch2; hN3, human Notch3; mN3, murine Notch3) and GFP inducible reporter construct. Transfected cells were incubated with different concentrations of antibody 59R1 and 59R5 in the presence of passively immobilized DLL4 Fc. […] Cells were also co-transfected with a plasmid encoding green fluorescent protein (GFP) to mark those cells that received transfected plasmid. Cells were incubated with 59R1 or 59R5 and fluorescent secondary antibody and then examined by FACS.
# The binding epitope of 59R5 was determined. As was described in Example 3 for analysis of antibody 59R1, several point mutants were created within full-length Notch1, converting residues within EGF10 to the corresponding amino acids in human Notch 2. Mutants in full-length Notch sequences were generated by QuikChange® mutagenesis (Stratagene) and verified by sequencing. […] Cells were also co-transfected with a plasmid encoding green fluorescent protein (GFP) to mark those cells that received transfected plasmid. Cells were incubated with 59R1 or 59R5 and fluorescent secondary antibody and then examined by FACS. 59R1 and 59R5 were detected by PE-conjugated goat anti-human Fc gamma specific antibody (Jackson Immunochemicals, #109-1,6-170).
# T1 sequence (chain, as listed by the source limits assumed): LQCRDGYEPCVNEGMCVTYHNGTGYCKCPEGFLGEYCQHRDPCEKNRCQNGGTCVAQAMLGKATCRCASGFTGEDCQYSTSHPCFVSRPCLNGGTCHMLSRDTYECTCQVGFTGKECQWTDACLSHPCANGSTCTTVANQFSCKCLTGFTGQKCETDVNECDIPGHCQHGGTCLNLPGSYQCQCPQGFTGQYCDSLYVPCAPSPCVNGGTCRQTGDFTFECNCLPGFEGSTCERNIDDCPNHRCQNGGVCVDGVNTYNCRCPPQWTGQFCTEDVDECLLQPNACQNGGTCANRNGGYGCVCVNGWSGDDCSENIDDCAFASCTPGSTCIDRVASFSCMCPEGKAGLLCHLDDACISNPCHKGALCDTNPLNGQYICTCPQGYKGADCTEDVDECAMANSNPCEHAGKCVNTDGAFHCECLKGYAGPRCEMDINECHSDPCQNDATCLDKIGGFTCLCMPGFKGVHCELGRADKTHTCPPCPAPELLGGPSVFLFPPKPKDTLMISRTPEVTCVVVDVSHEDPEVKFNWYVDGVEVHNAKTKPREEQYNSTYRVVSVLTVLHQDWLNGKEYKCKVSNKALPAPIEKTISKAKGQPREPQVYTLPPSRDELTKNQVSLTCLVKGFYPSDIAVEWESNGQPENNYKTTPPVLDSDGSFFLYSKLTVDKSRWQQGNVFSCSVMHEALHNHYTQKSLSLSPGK
Binder,binding result [1],binding result [2]
"59R1 Fab (Fab, V domains shown, Human Fab from a synthetic phage library; also called Clone 1; clone 1) VH: QVQLVESGGGLVQPGGSLRLSCAASGFTFSSSGMSWVRQAPGKGLEWVSVIASSGSNTYYADSVKGRFTISRDNSKNTLYLQMNSLRAEDTAVYYCARGIFFAIWGQGTLVTVSS VL: not shown",binds,
"59R5 antibody (antibody, human IgG2, kappa, V domains shown, also called anti-Notch2/3 antibody 59R5; 59R5 IgG2) VH: EVQLVESGGGLVQPGGSLRLSCAASGFTFSSSGMSWVRQAPGKGLEWVSVIASSGSNTYYADSVKGRFTISRDNSKNTLYLQMNSLRAEDTAVYYCARSIFYTTWGQGTLVTVSS VL: not shown",,binds

# From patent US20100111958A1 (published 2010)
